Here are results for 41 sequences from the nanobody polyreactivity screen of Harvey et al. (2022).

A short description of the series: yeast display, Sf9 membrane polyspecificity reagent, FACS + sequencing; frameworks hold sequencing errors. The essentials:
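In a synthetic yeast display library (Saccharomyces cerevisiae BJ5465), nanobody expression was induced with galactose for 36–48 hours. FACS gates were set low and high (top ~1%) using anti-HA fluorescence for expression and streptavidin fluorescence for binding of the Sf9 membrane reagent. Each polyreactivity label is drawn from the gate of origin.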
“QVQLVESGGGLVQAGGSLRLSCAASGITFVPNAMGWYRQAPGKERELVARIDNGVSTNYADSVKGRFTISRDNAKNTVYLQMNSLKPEDTAVYYCAKDGYWGDWDLYYWGQGTQVTVSS”: the “polyreactivity (PSR sort gate)” value is reported as “low polyreactivity”.
With “QVQLVESGGGLVQAGGSLRLSCAASGITFVPYAMGWSRQAPGKERELVAAITWRGGSTYYADSVKGRFTISRDNAKNTVYLQMNSLKPEDTAVYYCAVKFRSSQYQLQYGSLGQGTQVTVSS”, the “polyreactivity (PSR sort gate)” value is recorded as “high polyreactivity”.
Regarding “QVQLVESGGGLVQAGGSLRLSCAASGITFVPYAMGWYRQAPGKEREFVARITWSGGGTYYADSVKGRFTISRDNAKNTVYLQMNSLKPEDTAVYYSNKASLPTYYYVDGSDSWGQGTQVTVSS”, the “polyreactivity (PSR sort gate)” value is listed as “low polyreactivity”.
In the case of “QVQLVESGGGLVQAGGSLRLSCAASGITFVRYAMGGYRQAPGKESELVAGISRGGSTNYADSVKGRFTISRDNAKNTVYLQMNSLKPEDSAVYYCNALYARRVYVGYDYWGQGTQVTVSS”, the “polyreactivity (PSR sort gate)” value is on record as “high polyreactivity”.
As for “QVQLVESGGGLVQAGGSLRLSCAASGITFVRYAMGWYRQAPGKERELVAAISSGGSTHYADSVKGRFTISRDNAKNTVYLQMYSLKPEDTAVYYCAAQWTESSLYRFGYLGQGTQVTVSS”, the “polyreactivity (PSR sort gate)” value is reported as “high polyreactivity”.
Consider “QVQLVESGGGLVQAGGSLRLSCAASGITFVRYAMGWYRQAPGKERELVATINWSGGSTYYADSVKGRFTISRDNAKNTVYLQMNSLKPEDTAVYYCAAYYVHPVYDVGHYDYWGQGTQVTVSS”, for which the “polyreactivity (PSR sort gate)” value is on record as “low polyreactivity”.
On to “QVQLVESGGGLVQAGGSLRLSCAASGITFVRYAMGWYRQATGKERELVAGISRGGSTNYADSVKGRFTISRDNAKNTVYLQMNSLKPEDTAVYYCNRVFTWRYGYRYEYWGQGTQVTVSS”, for which the “polyreactivity (PSR sort gate)” value is “high polyreactivity”.
With “QVQLVESGGGLVQAGGSLRLSCAASGITFVWNAMGWYIKEPGKERELVATISRGGVRTYYADSVKGRFTISRDNAKNTVYLQMNSLKPEDTAVYYCNAYFEYYDYWGQGTQVSVSS” the entry was “low polyreactivity”; with “QVQLVESGGGLVQAGGSLRLSCAASGITFVYNDMGSYRQAPGKESELVAAISWRGGSTYYADSVKGRFTISRDNAKNTVYLQMNSLKPEDTAVYYCNKLPTYPEYGYDSWGQGTQVTVSS”, “high polyreactivity”.
The same measure for “QVQLVESGGGLVQAGGSLRLSCAASGITFVYYDMGWYRQAPGKERELLAAISSGGSTYYADSVKGRFTISRDNAKNTVYLQMNSLKPEDTAVYYCAAKISSNYHIGGDDYWGQGTQVSVSS”: “high polyreactivity”.
“QVQLVESGGGLVQAGGSLRLSCAASGITFVYYDMGWYRQAPGKERELVAAISSGGSTYYADSVKGRFTISRDNAKNNVYLQMNRLKPEDTAVYYCAAKISSNYHIGGDDYWGQGTQVTVSS”: the “polyreactivity (PSR sort gate)” value is “high polyreactivity”.
For the sequence “QVQLVESGGGLVQAGGSLRLSCAASGITFVYYTMGWYRQAPGKERELVASITWDGRSTYYADSVKGRFTISRDNAKNTVYLQMNSLKPEDTAVYYCNRDRVSGGKYNYWGQGTQVTVSS”, the “polyreactivity (PSR sort gate)” value was “low polyreactivity”.
With “QVQLVESGGGLVQAGGSLRLSCAASGITFWFNAMGWYRQAPGQERELVAAITSGVDTNYADSVKGRFTISRDNAKNTVYLQMNSLIPEDTAVYYCAAQGGRLKRGRTTSDYWGQGTQVTVSS”, the “polyreactivity (PSR sort gate)” value was “low polyreactivity”.
Turning to “QVQLVESGGGLVQAGGSLRLSCAASGITFWHNTMGWYRQAPGKERELVAAISWTGGRTYYADSVKGRFTISRDNAKNSVYLQMNSLKPEDTPVYYCAADFSWTPSGNYDSWGQGTQVTVSS”, the “polyreactivity (PSR sort gate)” value is reported as “low polyreactivity”.
The same measure for “QVQLVESGGGLVQAGGSLRLSCAASGITFWVYAMGWYRQAPGKERELVAAISRRGGSTSYADSVKGRFTISRDNAKNTVYLQMNSLKPEDTAVYYCAATTYTHPYGYWGQGTQVTVSS”: “high polyreactivity”; for “QVQLVESGGGLVQAGGSLRLSCAASGITFWYYAMGWYRQAPGKERELVAAITGGDSTNYADSVKGRFTISRDNAKNTVYLQMNSLKPEDTAVYYCNAEGSYEGYDDYWGQGTQVTVSS”: “high polyreactivity”.
Consider “QVQLVESGGGLVQAGGSLRLSCAASGITFWYYAMGWYRQAPGKERELVAVISRGGSTYYADSVKGRFTISRDNAKNTVYLQLNSLKPEDTAVYYCAARPRWYTYTRQEYDYWGQGTQVTVSS”, for which the “polyreactivity (PSR sort gate)” value is “high polyreactivity”.
For the sequence “QVQLVESGGGLVQAGGSLRLSCAASGITFWYYTMGWYRQAPGKERELVARITSGSRTSYADSVKGRFTISRDNAKNTVYLQMNSLKPEDTAVYYCAAGSYADRLWSKYNYWGQGTQVTVSS”, the “polyreactivity (PSR sort gate)” value is given as “high polyreactivity”.
Turning to “QVQLVESGGGLVQAGGSLRLSCAASGITFYDNVMGWYRQAPGKERELVAAITSGGSTNYADSVKGRFTISRDNAKNTVYLQMNSLKPEDTAVYYCAAQTRVDYEFPYRYGYWGQGTQVTVSS”, the “polyreactivity (PSR sort gate)” value is “low polyreactivity”.
With “QVQLVESGGGLVQAGGSLRLSCAASGITFYDYAMGWSRQAPGKDRELVSAINSSGVRTYYADSVKGRFTISRDNAKNTVYLQMNSLKPEDTAVYYCAAERYYYFVPYWYDYWGQGTQVTVSS” the entry was “high polyreactivity”.
Turning to “QVQLVESGGGLVQAGGSLRLSCAASGITFYDYAMGWYRQAPGKERELVAVITRRGGSTYYADSVKGRFTISRDNAKNTVYIQMNSLKPEDTAVYYCAADWRVWSFVRGVDYWGQGTQVTVSS”, the “polyreactivity (PSR sort gate)” value is reported as “high polyreactivity”.
Consider “QVQLVESGGGLVQAGGSLRLSCAASGITFYFNTMGWYRQAPGKERELVASISGGSSTYYADSVKGRFTISRDNAKYTVYLQMNSLKPEDTAVYYCNAQGSLFRGWFDYDYWGQGTQVTVSS”, for which the “polyreactivity (PSR sort gate)” value is on record as “low polyreactivity”.
As for “QVQLVESGGGLVQAGGSLRLSCAASGITFYGNAMGWYRQAPGKERELVAAITYSGTSTYYADSVKGRFTISRDNAKNTVYLQMNSLKPEDTAVYYCAADEWYLVDYWGQGTQVTVSS”, the “polyreactivity (PSR sort gate)” value is “low polyreactivity”.
As for “QVQLVESGGGLVQAGGSLRLSCAASGITFYGNAMGWYRQAPGKERELVAGISSGGSTSYADSVKGRFTISRDNAKNTVYLQMNSLKPEDTAVYYCAKRWYYGTRYGTSYIRDYWGQGTQVTVSS”, the “polyreactivity (PSR sort gate)” value was “high polyreactivity”.
Take “QVQLVESGGGLVQAGGSLRLSCAASGITFYGYAMGWYRQAPGKEREFVAAISASGGSTYYADSVKGRFTISRDNAKNTVYLQMNSLKPEDTAVYYCAALVRGAYGYGYWGQGTQVTVSS”: the “polyreactivity (PSR sort gate)” value was “high polyreactivity”.
In the case of “QVQLVESGGGLVQAGGSLRLSCAASGITFYGYAMGWYRQAPGKERELVAAISSRGGSTYYADSVKGRFTISRDNAKNTVYLQMNRLKPEDTAVYYCAAVYYTGEYYYWGQGTQVTVSS”, the “polyreactivity (PSR sort gate)” value is “high polyreactivity”.
For the sequence “QVQLVESGGGLVQAGGSLRLSCAASGITFYGYAMGWYRQAPGKERELVAAITRGGSTNYADSVKGRFTISRDNAKITPYLQMNSLKPEDTAVYYCNTYVGRRPGYGYWGQGTQVTVSS”, the “polyreactivity (PSR sort gate)” value is listed as “high polyreactivity”.
For “QVQLVESGGGLVQAGGSLRLSCAASGITFYGYAMGWYRQAPGKERELVAAITRGGSTNYADSVKGRFTISRDNAKNTVYLQMNSLKPEDTAVYYCAAEYSVYWYYRYEYWGQGTQVTVSS”, the “polyreactivity (PSR sort gate)” value is reported as “high polyreactivity”.
With “QVQLVESGGGLVQAGGSLRLSCAASGITFYGYAMGWYRQAPGKERELVARITASGGSTYYADSVKGRFTISRDNAKNTVYLQMKSLKPEVTAVYYCAKDWYRYSRFDYWGQGTQVTVSS” the entry was “high polyreactivity”; with “QVQLVESGGGLVQAGGSLRLSCAASGITFYGYDKGWYRQAPGKERELGAAITSDGITNYADSVKGRFTISRDNAKNTVYLQMNSLKPEDTAVYYCAADLSFYRRYEWYYYWGQGTQVTVSS”, “low polyreactivity”; with “QVQLVESGGGLVQAGGSLRLSCAASGITFYGYDMGWYRQAPAKERELVAAITSDGITNYADSVKGRFTISRDNAKNTVYLQMNSLKPEDTAVYYCNAVFRPGSFLYDWRAYDYWGQGTQVTVSS”, “low polyreactivity”.
For “QVQLVESGGGLVQAGGSLRLSCAASGITFYGYTMGWYRQAPGKERELVAAITSGGITYYADSVKGRFTISRDNAKNTVYLQMNSLKPEDTAVYYCNADDVWYEYDYWGEGTQVTVSS”, the “polyreactivity (PSR sort gate)” value was “high polyreactivity”.
The same measure for “QVQLVESGGGLVQAGGSLRLSCAASGITFYHYAMGWYRQAPGKERELVAAISSDDNTNYADSVKGRFTISRDNEKNTVYLQMNSLNPEVTAVYYCNKRSLKNEPRYDYWGQGTQVTVSS”: “high polyreactivity”; for “QVQLVESGGGLVQAGGSLRLSCAASGITFYIYAMGWYRQAPGKERELVATISWSDGRTYYADSVKGRFTISRDNAKTTVYLQMNSLKPEDTAVYYCAADWWYYQFDYEYWGQGTQVTVSS”: “low polyreactivity”.
Consider “QVQLVESGGGLVQAGGSLRLSCAASGITFYPNDMGWYRQAPGKERELVAAITTNDGDTYYADSVKGRFTISRDKAKNTVYLQMNSLKPEDTAVYYCAAASGSTSEYEYWGQGTQVTVSS”, for which the “polyreactivity (PSR sort gate)” value is “low polyreactivity”.
“QVQLVESGGGLVQAGGSLRLSCAASGITFYPYTMGWYRQAPGKERELVASISTSGTNYADSVKGRFTISRDNAKNTVYLQMNSLKPEDTAVYYCAADIWSYYRSTHVDSWGQGTQVTVSS”: the “polyreactivity (PSR sort gate)” value is on record as “low polyreactivity”.
The same measure for “QVQLVESGGGLVQAGGSLRLSCAASGITFYRNAMGWYRQAPGKEREFVAAITSSGGSTYYADSVKGRFTISRDNAKNTVYLQMNSLKPEDTAVYYCRPGRWRVSHKYDYWGQGTQVTVSS”: “high polyreactivity”.
Turning to “QVQLVESGGGLVQAGGSLRLSCAASGITFYRYAKGSYRQAPGKERELVAAIRRAGSTYYADSVKGRVTISRDNAKKTVYLQMNSLKPEDTAVYYCNARYGIGMNYWGQGTQVTVSS”, the “polyreactivity (PSR sort gate)” value is listed as “high polyreactivity”.
As for “QVQLVESGGGLVQAGGSLRLSCAASGITFYRYAMGWYRQAPGKERELVAAISTSGGTTYYADSVKERFTISRDNAKNTVYLQMNSLKPEDTAVYYCAAQYLRWSRMDYWGQGTQVTVSS”, the “polyreactivity (PSR sort gate)” value is on record as “high polyreactivity”.
Consider “QVQLVESGGGLVQAGGSLRLSCAASGITFYRYAMGWYRQAPGKERELVAAITSSGGSTYYADSVKGRFTISRDNAKNTVYLQMNSLKPQDTAVYYCAARDLGRYPPKLYYWGQGTQVTVSS”, for which the “polyreactivity (PSR sort gate)” value is listed as “high polyreactivity”.
For the sequence “QVQLVESGGGLVQAGGSLRLSCAASGITFYRYAMGWYRQAPGTEREVVATITSGGSTYYADSVKGRFTISRDNAKNTVYLQMNSLKPEDTAVYYCAAESVWTWYYTTAGMDYWGQGTQVTVSS”, the “polyreactivity (PSR sort gate)” value is “high polyreactivity”.
